Source: patent US10040826

Assays:
[1] = target: A244 gDΔ11 gp120 (Herpes simplex virus; HIV-1); experiment: SPR
A244 Δ11 gp120 (HIV-1) [2] = experiment: SPR
[3] = target: A244 gDΔ11 gp120 (Herpes simplex virus; HIV-1); experiment: SPR, mAb captured on anti-Fc surface, monomeric gp120 as analyte
[4] = target: A244 gp120 (no modifications) (HIV-1); experiment: as above
A244 Δ11 gp120 (HIV-1) [5] = experiment: as above
[6] = target: A244 gp120 (no modifications) (HIV-1); experiment: SPR titration, binding to CH03 mAb; A244 gDneg at [10] to [100], unit inferred
A244 Δ11 gp120 (HIV-1) [7] = experiment: SPR titration, binding to CH03 mAb; A244 gDneg D11 at [10] to [100], unit inferred
A244 Δ11 gp120 (HIV-1) [8] = experiment: SPR titration, binding to CH03 mAb; A244 gDneg D11 at [10], [25], [50], [75], [100], unit inferred
[9] = target: MN gDΔ11 gp120 (Herpes simplex virus; HIV-1); experiment: Kd table; row B.MN gp120, column CH01 gD+; method not given
[10] = target: MN gp120 (no modifications) (HIV-1); experiment: Kd table; row B.MN gp120, column CH01 gD-; method not given
[11] = target: A244 gDΔ11 gp120 (Herpes simplex virus; HIV-1); experiment: Kd table; row AE.A244 gp120, column CH01 gD+; method not given
[12] = target: A244 gp120 (no modifications) (HIV-1); experiment: Kd table; row AE.A244 gp120, column CH01 gD-; method not given
[13] = target: A244 gp120 (no modifications) (HIV-1); experiment: SPR titration, binding to CH01 mAb; A244 gDneg at [10] to [100], unit inferred
A244 Δ11 gp120 (HIV-1) [14] = experiment: SPR titration, binding to CH01 mAb; A244 gDneg D11 at [10] to [100], unit inferred
[15] = target: A244 gDΔ11 gp120 (Herpes simplex virus; HIV-1); experiment: SPR titration, binding to CH01 mAb; A244 gD+ 293Tmon at [5] to [100], unit inferred
[16] = target: A244 gp120 (no modifications) (HIV-1); experiment: SPR titration, binding to CH01 mAb; A244 gDneg at [10], [25], [50], [75], [100], unit inferred
A244 Δ11 gp120 (HIV-1) [17] = experiment: SPR titration, binding to CH01 mAb; A244 gDneg D11 at [10], [25], [50], [75], [100], unit inferred
[18] = target: A244 gDΔ11 gp120 (Herpes simplex virus; HIV-1); experiment: SPR titration, binding to CH01 mAb; A244 gD+ 293Tmon at [5], [10], [25], [50], [100], unit inferred
A244 Δ11 gp120 (HIV-1) [19] = experiment: SPR blocking on immobilized A244 Δ11 gp120, mAb injected to near saturation, then RV144 vaccinee IgG; against 7B2 control
[20] = target: A244 gDΔ11 gp120 (Herpes simplex virus; HIV-1); experiment: SPR titration, binding to CH01 mAb; A244 gD+ 293Tmon at [5] to [100], unit inferred; footnote: '* Fit deviation, need to lower Ag density'
[21] = target: A244 gp120 (no modifications) (HIV-1); experiment: SPR titration, binding to CH01 mAb; A244 gDneg at [10] to [100], unit inferred; the sheet prints a slash where a decimal point is meant (kd/ka as printed gives 3.1 µM)
A244 Δ11 gp120 (HIV-1) [22] = experiment: SPR; A244 gp120 gD- Δ11 293T monomer batch 110608 flowed over immobilised T8; ratio to ConS gp140
A244 Δ11 gp120 (HIV-1) [23] = experiment: SPR; A244 gp120 gD- Δ11 293T monomer batch 110608 flowed over immobilised T8; response axis in RU
A244 Δ11 gp120 (HIV-1) [24] = experiment: SPR; 17b flowed over A244gD- d11 (batch 110608) held on immobilised A32 (A32-triggered Env)
A244 Δ11 gp120 (HIV-1) [25] = experiment: SPR; 17b flowed over A244gD- d11 (batch 110608) held on immobilised sCD4 (sCD4-triggered Env)
A244 Δ11 gp120 (HIV-1) [26] = experiment: SPR; 17b flowed over A244gD- d11 (batch 110608) held on immobilised T8 (T8-triggered Env); response axis in RU
A244 Δ11 gp120 (HIV-1) [27] = experiment: SPR; 17b flowed over A244gD- d11 (batch 110608) held on immobilised A32 (A32-triggered Env); response axis in RU
A244 Δ11 gp120 (HIV-1) [28] = experiment: SPR; 17b flowed over A244gD- d11 (batch 110608) held on immobilised sCD4 (sCD4-triggered Env); response axis in RU
[29] = target: MN-rgp120 (RV144 vaccine immunogen) (Herpes simplex virus; HIV-1); experiment: SPR, mAb captured on anti-Fc surface, gp120 as analyte (FIG. 28)
[30] = target: MN-rgp120 (RV144 vaccine immunogen) (Herpes simplex virus; HIV-1); experiment: SPR; 19b captured on anti-Fc surface, RV144 MN-rgp120 injected at 0.5-5 µg/mL; fitted curves
[31] = target: A244-rgp120 (RV144 vaccine immunogen) (Herpes simplex virus; HIV-1); experiment: SPR; 19b captured on anti-Fc surface, RV144 A244-rgp120 injected at 0.5-5 µg/mL; fitted curves [lower row]
[32] = target: MN gDΔ11 gp120 (Herpes simplex virus; HIV-1); experiment: Kd table; row B.MN gp120, column PG9 gD+; method not given
[33] = target: MN gp120 (no modifications) (HIV-1); experiment: Kd table; row B.MN gp120, column PG9 gD-; method not given
[34] = target: A244 gDΔ11 gp120 (Herpes simplex virus; HIV-1); experiment: Kd table; row AE.A244 gp120, column PG9 gD+; method not given
[35] = target: A244 gp120 (no modifications) (HIV-1); experiment: Kd table; row AE.A244 gp120, column PG9 gD-; method not given
[36] = target: 92TH023 gDΔ11 gp120 (Herpes simplex virus; HIV-1); experiment: Kd table; row AE.92TH023 gp120, column PG9 gD+; method not given
A244 Δ11 gp120 (HIV-1) [37] = experiment: SPR titration, binding to PG9 mAb (IAVI PG9); A244 gDneg D11 at [10] to [100], unit inferred
[38] = target: A244 gDΔ11 gp120 (Herpes simplex virus; HIV-1); experiment: SPR titration, binding to PG9 mAb (IAVI PG9); A244 gD+293Tmon at [10] to [40], unit inferred
[39] = target: A244 gDΔ11 gp120 (Herpes simplex virus; HIV-1); experiment: SPR titration, binding to PG9 mAb (IAVI PG9); A244 gD+293Tmon at [10], [20], [30], [40], unit inferred
A244 Δ11 gp120 (HIV-1) [40] = experiment: SPR titration, binding to PG9 mAb (IAVI PG9); A244 gDneg D11 at [10], [25], [50], [75], [100], unit inferred

Substance: V2 mAb 830A (antibody)
- fold more avid than to unmodified A244 gp120 [1]: 5 fold
- fold more avid than to unmodified A244 gp120 (A244 Δ11 gp120 (HIV-1) [2]): 5 fold
- Kd [3]: 1.7 nM
- koff [3]: 7e-05 s⁻¹
- kon [3]: 41100 M⁻¹ s⁻¹
- Kd [4]: 10.2 nM
- koff [4]: 0.00022 s⁻¹
- kon [4]: 21800 M⁻¹ s⁻¹
- Kd (A244 Δ11 gp120 (HIV-1) [5]): 1.56 nM
- koff (A244 Δ11 gp120 (HIV-1) [5]): 8.8e-05 s⁻¹
- kon (A244 Δ11 gp120 (HIV-1) [5]): 59900 M⁻¹ s⁻¹

Substance: mAb CH03 (V2,V3 conformational) (antibody)
- Kd [6]: 5500 nM
- koff [6]: 0.0055 s⁻¹
- Kd (A244 Δ11 gp120 (HIV-1) [7]): 620 nM
- koff (A244 Δ11 gp120 (HIV-1) [7]): 0.0167 s⁻¹
- kon (A244 Δ11 gp120 (HIV-1) [8]): 27000 M⁻¹ s⁻¹

Substance: V2V3 bnAb CH01 (antibody)
- fold faster association rate than with unmodified gp120 [1]: 10 fold
- fold higher affinity than for unmodified A244 gp120 [1]: 5 fold
- fold faster association rate than with unmodified gp120 (A244 Δ11 gp120 (HIV-1) [2]): 10 fold
- fold higher affinity than for unmodified A244 gp120 (A244 Δ11 gp120 (HIV-1) [2]): 5 fold
- Kd [3]: 278 nM
- koff [3]: 0.0099 s⁻¹
- kon [3]: 37200 M⁻¹ s⁻¹
- Kd [4]: 1640 nM
- koff [4]: 0.00438 s⁻¹
- kon [4]: 3730 M⁻¹ s⁻¹
- Kd (A244 Δ11 gp120 (HIV-1) [5]): 317 nM
- koff (A244 Δ11 gp120 (HIV-1) [5]): 0.0156 s⁻¹
- kon (A244 Δ11 gp120 (HIV-1) [5]): 49000 M⁻¹ s⁻¹
- Kd [9]: 288 nM
- Kd [10]: 457 nM
- Kd [11]: 200 nM
- Kd [12]: 2100 nM
- koff [13]: 0.00237 s⁻¹
- Kd (A244 Δ11 gp120 (HIV-1) [14]): 430 nM
- koff (A244 Δ11 gp120 (HIV-1) [14]): 0.0135 s⁻¹
- koff [15]: 0.0028 s⁻¹
- kon [16]: 760 M⁻¹ s⁻¹
- kon (A244 Δ11 gp120 (HIV-1) [17]): 31100 M⁻¹ s⁻¹
- kon [18]: 9800 M⁻¹ s⁻¹
- percent blocking of RV144 vaccinee IgG binding (A244 Δ11 gp120 (HIV-1) [19]): 24.6%
- Kd [20]: 290 nM
- Kd [21]: 3100 nM

Substance: T8 (C1 mAb) (antibody)
- Relative Binding Env/ConS gp140 (A244 Δ11 gp120 (HIV-1) [22]): 2.88
- Req (A244 Δ11 gp120 (HIV-1) [23]): 1250

Substance: VRC01 (CD4 bs mAb) (antibody)
- Kd [3]: 15.8 nM
- koff [3]: 0.00021 s⁻¹
- kon [3]: 13300 M⁻¹ s⁻¹
- Kd [4]: 15.7 nM
- koff [4]: 0.00028 s⁻¹
- kon [4]: 17600 M⁻¹ s⁻¹
- Kd (A244 Δ11 gp120 (HIV-1) [5]): 36.7 nM
- koff (A244 Δ11 gp120 (HIV-1) [5]): 0.00039 s⁻¹
- kon (A244 Δ11 gp120 (HIV-1) [5]): 9700 M⁻¹ s⁻¹

Substance: CCR5 receptor gp120 binding site mAb 17b (antibody)
- 17b binding ratio (A244 Δ11 gp120 (HIV-1) [24]): 0.327
- 17b binding ratio (A244 Δ11 gp120 (HIV-1) [25]): 0.316
- Req (A244 Δ11 gp120 (HIV-1) [26]): -169
- Req (A244 Δ11 gp120 (HIV-1) [27]): 529
- Req (A244 Δ11 gp120 (HIV-1) [28]): 166

Substance: V3 mAb 19b (antibody)
- Kd [3]: 8.24 nM
- koff [3]: 0.0014 s⁻¹
- kon [3]: 170000 M⁻¹ s⁻¹
- Kd [4]: 11.8 nM
- koff [4]: 0.00154 s⁻¹
- kon [4]: 130000 M⁻¹ s⁻¹
- Kd (A244 Δ11 gp120 (HIV-1) [5]): 6.54 nM
- koff (A244 Δ11 gp120 (HIV-1) [5]): 0.00156 s⁻¹
- kon (A244 Δ11 gp120 (HIV-1) [5]): 239000 M⁻¹ s⁻¹
- fold lower Kd than for A244-rgp120 [29]: 5 fold
- Kd [30]: 3.4 nM
- Kd [31]: 15.3 nM

Substance: V2V3 bnAb PG9 (antibody)
- fold higher affinity than for unmodified A244 gp120 [1]: 3 fold
- fold higher affinity than for unmodified A244 gp120 (A244 Δ11 gp120 (HIV-1) [2]): 3 fold
- Kd [3]: 48.1 nM
- koff [3]: 0.00055 s⁻¹
- kon [3]: 11500 M⁻¹ s⁻¹
- Kd [4]: 183 nM
- koff [4]: 0.0011 s⁻¹
- kon [4]: 5000 M⁻¹ s⁻¹
- Kd (A244 Δ11 gp120 (HIV-1) [5]): 52.6 nM
- koff (A244 Δ11 gp120 (HIV-1) [5]): 0.00057 s⁻¹
- kon (A244 Δ11 gp120 (HIV-1) [5]): 10900 M⁻¹ s⁻¹
- Kd [32]: 542 nM
- Kd [33]: 347 nM
- Kd [34]: 128 nM
- Kd [35]: 1100 nM
- Kd [36]: 212 nM
- Kd (A244 Δ11 gp120 (HIV-1) [37]): 88.7 nM
- koff (A244 Δ11 gp120 (HIV-1) [37]): 0.00102 s⁻¹
- Kd [38]: 62.7 nM
- koff [38]: 0.00105 s⁻¹
- kon [39]: 16800 M⁻¹ s⁻¹
- kon (A244 Δ11 gp120 (HIV-1) [40]): 11500 M⁻¹ s⁻¹
